Experimental data: patent publication US20100092974A1, “METHODS FOR SCREENING FOR MODULATORS OF CCRL2” (The Board of Trustees of the Leland Stanford Junior …, priority 2008, published 2010)
Each block holds one molecule with its values, some of them ahead of it.

Legend:
mCCRL2 [1] = molecular target: T1, mCCRL2 (Mus musculus, UniProt O35457); test: chemerin binding/anti-mCCRL2 mAb displacement on peritoneal mast cells (flow cytometry); conditions: 1000 nM
T1 construct: The coding regions of mCCRL2, huCCRL2, mCRTH2, and huCCR10 were amplified from genomic DNA; expressed in transfected cells
T1 sequence (O35457 1-360): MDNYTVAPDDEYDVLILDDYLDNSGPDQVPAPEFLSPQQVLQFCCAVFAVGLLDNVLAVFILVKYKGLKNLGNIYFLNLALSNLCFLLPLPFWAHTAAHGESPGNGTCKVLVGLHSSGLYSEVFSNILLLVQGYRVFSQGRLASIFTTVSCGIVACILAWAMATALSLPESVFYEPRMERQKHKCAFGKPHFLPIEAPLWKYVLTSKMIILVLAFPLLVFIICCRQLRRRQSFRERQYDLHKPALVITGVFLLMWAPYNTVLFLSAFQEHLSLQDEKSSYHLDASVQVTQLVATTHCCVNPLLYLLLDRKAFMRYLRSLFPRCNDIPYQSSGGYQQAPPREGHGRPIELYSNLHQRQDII

mCCRL2 [2] = molecular target: T1, mCCRL2; test: intracellular calcium mobilization, CCRL2/HEK293 transfectants; assay type: cell-based; conditions: HEK293 background, alone or in combination
Method: Chemoattractant-stimulated Ca^2+-mobilization was performed following Alliance for Cell Signaling protocol ID PP00000210. Cells (3×10^6/mL) were loaded with 4 μM Fluo4-AM and 0.16% Pluronic acid F-127 (Molecular Probes) in modified Iscove's medium (Iscove's medium with 1% heat inactivated bovine calf serum and 2 mM L-glutamine, Invitrogen) for 30 minutes at 37° C. The samples were mixed every 10 minutes during loading, washed once, resuspended at up to 2×10^6/mL in the same buffer, and allowed to rest in the dark for 30 minutes at room temperature. Chemoattractant-stimulated change in Ca^2+-sensitive fluorescence of Fluo-4 was measured over real-time with a FACsScan flow cytometer and CellQuest software (BD Biosciences) at room temperature under constant stirring (500 rpm). Fluorescent data were acquired continuously up to 1024 seconds at 1-second intervals. The samples were analyzed for 45 seconds to establish basal state, removed from the nozzle to add the stimuli, and then returned to the nozzle. Mean channel fluorescence over time was analyzed with FlowJo (TreeStar, Ashland, Oreg., USA) software. […] 500 μl of these chemerin-loaded cells were added to mCMKLR1/L1.2 cells loaded with Fluo4-AM, and calcium mobilization was evaluated.

mCCRL2 [3] = molecular target: T1, mCCRL2; test: in vitro transwell chemotaxis, mCCRL2/L1.2 transfectants; assay type: cell-based
Method: For migration experiments using cell lines, 2.5×10^5 cells/100 μl chemotaxis media (RPMI+10% fetal calf serum) were added to the top wells of 5-um pore transwell inserts (Costar, Corning, N.Y., USA), and test samples in 600 μl media were added to the bottom wells. After incubating the transwell plates for 1.5 hours at 37° C., the bottom wells were harvested and flow cytometry was used to assess migration. For primary cell chemotaxis, 1×10^6 cells/100 μl were added to the top well, and, following a 2 hour incubation at 37° C., polystyrene beads (15.0 μm diameter, Polysciences, Warrington, Pa., USA) were added to each well to facilitate normalization of the cell count. The cells were then stained for c-kit, F4/80, and/or CD11b expression and analyzed by flow cytometry. A ratio was generated and percent input migration was calculated.

[4] = molecular target: T2, mouse CCRL2 (chemokine (CC motif) receptor-like 2), untagged (mouse, UniProt O35457 1-360); test: flow cytometry on WT peritoneal mast cells; competitor displaced: 10 nM His8-tagged serum form chemerin, anti-His6 PE [panel E]
T2 construct: whole, on cells; also called mCCRL2; mCCRL2/L1.2
T2 sequence (looked up): T1 sequence (O35457 1-360)

[5] = molecular target: T2, mouse CCRL2 (chemokine (CC motif) …); test: flow cytometry; chemerin inhibits staining of mouse peritoneal mast cells by the competitor anti-mCCRL2 BZ5B8; chemerin blocks anti-mCCRL2 mAb staining of mouse peritoneal mast cells
[6] = molecular target: T3, mouse CCRL2 with an engineered N-terminal hemagglutinin (HA) tag (mouse, UniProt O35457 1-360); test: flow cytometry; untagged chemerin competes with 10 nM His8-tagged serum form human chemerin, detected with anti-His6 PE
T3 construct: whole, on cells; also called mCCRL2-HA; mCCRL2-HA/L1.2; not shown: engineered N-terminal HA tag
T3 sequence (looked up): T1 sequence (O35457 1-360)

[7] = molecular target: T4, human CCRL2 with an engineered N-terminal hemagglutinin (HA) tag (human, UniProt O00421 1-344); test: as above
T4 construct: whole, on cells; also called huCCRL2-HA; not shown: engineered N-terminal HA tag
T4 sequence (looked up): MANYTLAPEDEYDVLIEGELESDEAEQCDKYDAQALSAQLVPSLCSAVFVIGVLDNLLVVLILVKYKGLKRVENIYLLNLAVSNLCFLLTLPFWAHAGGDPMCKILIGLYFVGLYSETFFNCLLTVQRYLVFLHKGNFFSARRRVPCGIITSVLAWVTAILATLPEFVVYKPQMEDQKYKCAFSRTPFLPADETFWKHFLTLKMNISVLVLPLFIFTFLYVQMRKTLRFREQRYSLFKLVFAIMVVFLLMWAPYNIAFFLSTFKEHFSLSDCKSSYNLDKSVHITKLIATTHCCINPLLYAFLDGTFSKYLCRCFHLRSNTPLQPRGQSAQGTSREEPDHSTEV

[8] = molecular target: T5, mouse CMKLR1 (chemokine-like receptor 1), untagged (mouse, UniProt P97468 1-371); test: radioligand competition on L1.2 transfectants
T5 construct: whole, on cells; also called mCMKLR1; mCMKLR1/L1.2
T5 sequence (looked up): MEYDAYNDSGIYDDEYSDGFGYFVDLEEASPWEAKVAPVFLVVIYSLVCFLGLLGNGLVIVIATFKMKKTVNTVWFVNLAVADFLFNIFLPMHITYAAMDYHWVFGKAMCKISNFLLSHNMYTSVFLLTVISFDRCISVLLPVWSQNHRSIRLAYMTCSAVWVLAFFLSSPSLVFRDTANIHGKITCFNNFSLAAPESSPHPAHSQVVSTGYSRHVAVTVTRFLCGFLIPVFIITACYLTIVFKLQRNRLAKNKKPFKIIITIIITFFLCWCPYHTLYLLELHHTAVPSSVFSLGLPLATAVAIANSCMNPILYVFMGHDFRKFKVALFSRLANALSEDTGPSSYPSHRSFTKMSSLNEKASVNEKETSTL

[9] = molecular target: T5, mouse CMKLR1 (chemokine-like receptor …); test: radioligand competition on L1.2 transfectants; displaces 125I-chemerin 21-148; 9-mer peptide … on CMKLR1
[10] = molecular target: T5, mouse CMKLR1 (chemokine-like receptor …); test: radioligand competition on L1.2 transfectants, 125I-chemerin 21-148 displaced by the peptide … [panel B, legend box]

Molecule: CCL2: chemokine purchased from R&D Systems
- effect on CCRL2 staining (mCCRL2 [1]): no effect
- agonism, intracellular calcium mobilization (mCCRL2 [2]): neither CCL2 nor chemerin functioned as agonists
- synergy of CCL2 and chemerin in transwell migration (mCCRL2 [3]; CCL2 with chemerin): did not synergize
- transwell migration (mCCRL2 [3]; range of doses, CXCL12 and CCL19 act via endogenous CXCR4 and CCR7): did not induce migration

B1: pro-form (1000 nM untagged chemerin isoform) (ligand)
chain: ADPELTEAQRRGLQVALEEFHKHPPVQWAFQETSVESAVDTPFPAGIFVRLEFKLQQTSCRKRDWKKPECKVRPNGRKRKCLACIKLGSEDKVLGRLVHCPIETQVLREAEEHQETQCLRVQRAGEDPHSFYFPGQFAFSKALPRSPH
notes: also called untagged pro-form human chemerin, His8 tag removed by carboxypeptidase A
- binding result [4]: binds

B4: bioactive 9-mer carboxyl-terminal chemerin peptide (residues 149-157) (peptide)
peptide: YFPGQFAFS
notes: Synthetic peptide; also called bioactive chemerin peptide
- fold less potent (against chemerin protein) [8]: 10 fold
- EC50 [9]: 26.2 nM
- EC50 [10]: 29 nM

More lines, now with the values ahead:

- EC50 [5]: 21 nM
B2: human chemerin (as used to block anti-mCCRL2 staining, FIG. 6 Panel A) (ligand, UniProt Q99969 21-157, looked up)
chain: ELTEAQRRGLQVALEEFHKHPPVQWAFQETSVESAVDTPFPAGIFVRLEFKLQQTSCRKRDWKKPECKVRPNGRKRKCLACIKLGSEDKVLGRLVHCPIETQVLREAEEHQETQCLRVQRAGEDPHSFYFPGQFAFS

- EC50 [6]: 45 nM
- EC50 [7]: 7 nM
B3: untagged "serum form" human chemerin (His8 tag removed by carboxypeptidase A) (ligand)
chain: ADPELTEAQRRGLQVALEEFHKHPPVQWAFQETSVESAVDTPFPAGIFVRLEFKLQQTSCRKRDWKKPECKVRPNGRKRKCLACIKLGSEDKVLGRLVHCPIETQVLREAEEHQETQCLRVQRAGEDPHSFYFPGQFAPH
notes: The assays print 'untagged serum form chemerin' or 'serum form chemerin' without the species; Printed with an ellipsis; also called untagged serum form chemerin; untagged chemerin
